This note sets out measurements from PMC9927937, “Loss of LGR4/GPR48 causes severe neonatal salt wasting due to disrupted WNT signaling altering adrenal zonation” (The Journal of Clinical Investigation, 2023).

In test [1] the target is HA-tagged LGR4, wild type (human, UniProt Q9BXB1-1 25-951). Put plainly: cell-based or functional assay.
Test [2] has as its target HA-tagged LGR4 nt-24 variant (-8 AA) (human, UniProt Q9BXB1-1 25-951, p.(His207_Arg214)). The test can be described thus: cell-based or functional assay.

B1: GFP-tagged RSPO1 (ligand, UniProt Q2MKA7 21-263, looked up)
chain: SRGIKGKRQRRISAEGSQACAKGCELCSEVNGCLKCSPKLFILLERNDIRQVGVCLPSCPPGYFDARNPDMNKCIKCKIEHCEACFSHNFCTKCKEGLYLHKGRCYPACPEGSSAANGTMECSSPAQCEMSEWSPWGPCSKKQQLCGFRRGSEERTRRVLHAPVGDHAACSDTKETRRCTVRRVPCPEGQKRRKGGQGRRENANRNLARKESKEAGAGSRRRKGQQQQQQQGTVGPLTSAGPA
For B1, the “TOP-Flash luciferase reporter of Wnt/β-catenin signaling in HEK293T cells transfected with LGR4, stimulated by RSPO1 (fold over basal)” value in test [1] was determined as 6.1 fold; in test [2], 3.3 fold.
